The target in test [1] is VB1-008 monoclonal antibody. The test can be described thus: peptide in molar excess (20× to 200×) against 0.5 µM VB1-008, flow cytometry on MDA-MB-435S cells.
The target of test [2] is Peptide 2 (Biotin-…) (human). The experiment in a line: ELISA on peptide-coated plates, 75 µg/mL VB1-008; reference Peptide 3. (In general: ELISA stands for enzyme-linked immunosorbent assay.)

Where no end group is shown, it is not given here. The star is where a group is joined. Biotin = O=C1N[C@H]2[C@H](CS[C@H]2CCCCC(=O)*)N1

B1: Peptide 3 (Biotin-…) (peptide)
peptide: Biotin-ATNMDSSHSIT
B1: the competition efficiency in test [1] is 96%.

B2: VB1-008 monoclonal antibody (antibody, V domains shown)
VH: QVQLQELGPRLVRPSQTLILTCTVSGGSVSGDEYYWSWLRQTPGKGLEWIGYMSYRGSSYYSPSLQSRVTIAVDRSKNEFSLKLTSVTAADAAVYFCARKYCGGDCRSGFDIWGRGTMVTVAS
VL: YELTQPPSVSVSPGQKAFITCSGDNLGNKYVCWYQQKPGQSPVLVIYEDTKRPSGIPERFSASNSGNTATLTISGTQPIDEADYYCQAWDSRTEIFGTGTKVTVLS
In the case of B2, in test [2], the percent of the binding observed with Peptide 3 was in the range of 50 to 60%.

B3: Peptide 2 (Biotin-…) (peptide)
peptide: Biotin-RIPATNMDSSH
Molecule B3 registered a competition efficiency in test [1] of 60%.

Source of the values: patent US8383117.
